Experimental data: doi:10.1101/2025.05.07.652675
Several values for one entry are separate records, joined by “and”; a condition that tells them apart may be missing. Identical values can stand only once.

Target: ZapC^F30D and ZapC^K94D
Test: BLI

Chain of FtsZ (wild type, untagged) (P0A9A6 whole entry): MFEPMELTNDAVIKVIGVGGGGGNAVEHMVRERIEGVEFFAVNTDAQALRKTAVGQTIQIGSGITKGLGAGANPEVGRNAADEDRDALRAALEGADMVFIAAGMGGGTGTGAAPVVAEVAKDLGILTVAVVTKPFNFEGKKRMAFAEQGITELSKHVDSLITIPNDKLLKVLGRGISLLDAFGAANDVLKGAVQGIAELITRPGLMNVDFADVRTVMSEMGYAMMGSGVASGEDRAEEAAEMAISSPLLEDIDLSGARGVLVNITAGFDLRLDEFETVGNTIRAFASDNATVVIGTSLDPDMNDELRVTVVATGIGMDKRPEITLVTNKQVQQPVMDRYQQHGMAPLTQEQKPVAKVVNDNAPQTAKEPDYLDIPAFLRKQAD

## FtsZ (wild type, untagged) (from UniProt P0A9A6 1-383) (natural protein)
  binding affinity relative to wild-type ZapC (times lower): 5 times and 7 times
